{"source": "patent US20130217060A1", "about": "(Butamax(TM) Advanced Biofuels LLC, priority 2007, published 2013)", "key": {"[1]": {"system": "butyraldehyde dehydrogenase", "experiment": "Acylating aldehyde dehydrogenase activity (NADH formation, 340 nm)", "conditions": "induced E. coli BL21-AI culture, one typical assay"}, "[2]": {"system": "trans-2-enoyl-CoA reductase", "experiment": "Trans-2-enoyl-CoA reductase activity assay (Hoffmeister et al.)", "type": "biochemical", "conditions": "induced E. coli BL21-AI culture carrying pRARE, one typical assay", "description": "Trans-2-enoyl-CoA reductase activity was assayed as described by Hoffmeister et al. (J. Biol. Chem. 280, 4329-4338 (2005)).\nTrans-2-enoyl-CoA reductase activity was assayed as described by Hoffmeister et al., J. Biol. Chem. 280:4329 (2005).\nEnzyme assays were performed as described above."}}, "data": [{"molecule": "Ald protein: butyraldehyde dehydrogenase (SEQ ID NO:12) from C. beijerinckii ATCC 35702 expressed in E. coli (protein, listed as Clostridium beijerinckii) MNKDTLIPTTKDLKVKTNGENINLKNYKDNSSCFGVFENVENAISSAVHAQKILSLHYTKEQREKIITEIRKAALQNKEVLATMILEETHMGRYEDKILKHELVAKYTPGTEDLTTTAWSGDNGLTVVEMSPYGVIGAITPSTNPTETVICNSIGMIAAGNAVVFNGHPCAKKCVAFAVEMINKAIISCGGPENLVTTIKNPTMESLDAIIKHPSIKLLCGTGGPGMVKTLLNSGKKAIGAGAGNPPVIVDDTADIEKAGRSIIEGCSFDNNLPCIAEKEVFVFENVADDLISNMLKNNAVIINEDQVSKLIDLVLQKNNETQEYFINKKWVGKDAKLFLDEIDVESPSNVKCIICEVNANHPFVMTELMMPILPIVRVKDIDEAIKYAKIAEQNRKHSAYIYSKNIDNLNRFEREIDTTIFVKNAKSFAGVGYEAEGFTTFTIAGSTGEGITSARNFTRQRRCVLAG", "values": [{"measurement": "specific activity (acylating aldehyde dehydrogenase)", "setting": "[1]", "result": 0.106, "unit": "µmol/mg/min"}]}, {"molecule": "TER CAC0462 protein: putative trans-2-enoyl-CoA reductase (SEQ ID NO:10) from C. acetobutylicum ATCC 824 expressed in E. coli (protein, listed as Clostridium acetobutylicum) MIVKAKFVKGFIRDVHPYGCRREVLNQIDYCKKAIGFRGPKKVLIVGASSGFGLATRISVAFGGPEAHTIGVSYETGATDRRIGTAGWYNNIFFKEFAKKKGLVAKNFIEDAFSNETKDKVIKYIKDEFGKIDLFVYSLAAPRRKDYKTGNVYTSRIKTILGDFEGPTIDVERDEITLKKVSSASIEEIEETRKVMGGEDWQEWCEELLYEDCFSDKATTIAYSYIGSPRTYKIYREGTIGIAKKDLEDKAKLINEKLNRVIGGRAFVSVNKALVTKASAYIPTFPLYAAILYKVMKEKNIHENCIMQIERMFSEKIYSNEKIQFDDKGRLRMDDLELRKDVQDEVDRIWSNITPENFKELSDYKGYKKEFMNLNGFDLDGVDYSKDLDIELLRKLEP", "values": [{"measurement": "specific activity (trans-2-enoyl-CoA reductase)", "setting": "[2]", "result": 0.694, "unit": "µmol/mg/min"}]}]}
